Results published in the supplement of paper PMC11246515.
± gives the standard deviation of the averaged measurements.

Assay: total protein half-life in vivo (active degradation + dilution); higher = more stable protein
[1] = E. coli NCM3722 delta-clpP delta-lon delta-hslV, growth: N-lim chemostat, doubling time 6 h
[2] = E. coli NCM3722 delta-clpP, growth: N-lim chemostat, doubling time 6 h
[3] = E. coli NCM3722 delta-hslV, growth: N-lim chemostat, doubling time 6 h
[4] = E. coli NCM3722 delta-lon, growth: N-lim chemostat, doubling time 6 h
[5] = E. coli NCM3722 delta-smpB, growth: N-lim chemostat, doubling time 6 h
[6] = wild type E. coli NCM3722, growth: C-lim chemostat, doubling time 6 h
[7] = wild type E. coli NCM3722, growth: C-lim chemostat, doubling time 12 h
[8] = wild type E. coli NCM3722, growth: N-lim chemostat, doubling time 6 h
[9] = wild type E. coli NCM3722, growth: N-lim chemostat, doubling time 12 h
[10] = wild type E. coli NCM3722, growth: P-lim chemostat, doubling time 6 h
[11] = wild type E. coli NCM3722, growth: P-lim chemostat, doubling time 12 h
[12] = wild type E. coli NCM3722, growth: C-lim chemostat, doubling time 3 h

With “MKEVEKNEIKRLSDRLDAIRHQQADLSLVEAADKYAELEKEKATLEAEIARLREVHSQKLSKEAQKLMKMPFQRAITKKEQADMGKLKKSVRGLVVVHPMTALGREMGLQEMTGFSKTAF [P0ADK8]” the “total protein half-life in vivo” value [1] was 6.16 ± 1.2 h, the “total protein half-life in vivo” value [2] was 4.37 ± 0.35 h and the “total protein half-life in vivo” value [3] was 4.65 ± 0.78 h. For the same sequence, the “total protein half-life in vivo” value [4] was 5.34 ± 1.4 h, the “total protein half-life in vivo” value [5] was 4.26 ± 0.64 h and the “total protein half-life in vivo” value [6] was over 8 h. The “total protein half-life in vivo” value [7] was 9.91 ± 3.4 h, the “total protein half-life in vivo” value [8] was 3.91 ± 0.96 h and the “total protein half-life in vivo” value [9] was 6.76 ± 1.6 h. For the same sequence, the “total protein half-life in vivo” value [10] was 3.5 ± 0.53 h and the “total protein half-life in vivo” value [11] was 6.29 ± 0.48 h.

With “MKSVFTISASLAISLMLCCTAQANDHKLLGAIAMPRNETNDLALKLPVCRIVKRIQLSADHGDLQLSGASVYFKAARSASQSLNIPSEIKEGQTTDWININSDNDNKRCVSKITFSGHTVNSSDMATLKIIGDD” the “total protein half-life in vivo” value [2] was 3.9 h, the “total protein half-life in vivo” value [5] was 5.9 h and the “total protein half-life in vivo” value [6] was 4.34 h. The “total protein half-life in vivo” value [9] was 13 h and the “total protein half-life in vivo” value [11] was 8.91 h.

With “MKTKLNELLEFPTPFTYKVMGQALPELVDQVVEVVQRHAPGDYTPTVKPSSKGNYHSVSITINATHIEQVETLYEELGKIDIVRMVL [P0A8J4]” the “total protein half-life in vivo” value [1] was 3.54 ± 1.3 h, the “total protein half-life in vivo” value [2] was 2.19 ± 0.44 h and the “total protein half-life in vivo” value [3] was 1.24 h. The “total protein half-life in vivo” value [4] was 2.23 ± 0.17 h, the “total protein half-life in vivo” value [5] was 1.42 ± 0.17 h and the “total protein half-life in vivo” value [12] was 2.1 h. The “total protein half-life in vivo” value [6] was 2.72 h, the “total protein half-life in vivo” value [7] was 3.05 h and the “total protein half-life in vivo” value [8] was 1.34 h. For the same sequence, the “total protein half-life in vivo” value [9] was 1.54 h, the “total protein half-life in vivo” value [10] was 2.04 ± 0.064 h and the “total protein half-life in vivo” value [11] was 3.43 ± 0.32 h.

With “MNMLALTIILPLIGFVLLAFSRGRWSENVSAIVGVGSVGLAALVTAFIGVDFFANGEQTYSQPLWTWMSVGDFNIGFNLVLDGLSLTMLSVVTGVGFLIHMYASWYMRGEEGYSRFFAYTNLFIASMVVLVLADNLLLMYLGWEGVGLCSYLLIGFYYTDPKNGAAAMKAFVVTRVGDVFLAFALFILYNELGTLNFREMVELAPAHFADGNNMLMWATLMLLGGAVGKSAQLPLQTWLADAMAGPTPVSALIHAATMVTAGVYLIARTHGLFLMTPEVLHLVGIVGAVTLLLAGFAALVQTDIKRVLAYSTMSQIGYMFLALGVQAWDAAIFHLMTHAFFKALLFLASGSVILACHHEQNIFKMGGLRKSIPLVYLCFLVGGAALSALPLVTAGFFSKDEILAGAMANGHINLMVAGLVGAFMTSLYTFRMIFIVFHGKEQIHAHAVKGVTHSLPLIVLLILSTFVGALIVPPLQGVLPQTTELAHGSMLTLEITSGVVAVVGILLAAWLWLGKRTLVTSIANSAPGRLLGTWWYNAWGFDWLYDKVFVKPFLGIAWLLKRDPLNSMMNIPAVLSRFAGKGLLLSENGYLRWYVASMSIGAVVVLALLMVLR” the “total protein half-life in vivo” value [1] was 7.03 ± 0.33 h, the “total protein half-life in vivo” value [2] was 7.32 ± 0.33 h and the “total protein half-life in vivo” value [3] was 6.62 ± 0.33 h. For the same sequence, the “total protein half-life in vivo” value [4] was 5.89 ± 0.59 h, the “total protein half-life in vivo” value [5] was 6.017 ± 0.032 h and the “total protein half-life in vivo” value [12] was 3.23 h. For the same sequence, the “total protein half-life in vivo” value [6] was 7.19 ± 1.1 h, the “total protein half-life in vivo” value [7] was 12.1 ± 1.4 h and the “total protein half-life in vivo” value [9] was 15.6 h. The “total protein half-life in vivo” value [10] was 6.74 ± 0.88 h and the “total protein half-life in vivo” value [11] was 11.1 ± 1.1 h.

In the case of “MSVKVIVTDMDGTFLNDAKTYNQPRFMAQYQELKKRGIKFVVASGNQYYQLISFFPELKDEISFVAENGALVYEHGKQLFHGELTRHESRIVIGELLKDKQLNFVACGLQSAYVSENAPEAFVALMAKHYHRLKPVKDYQEIDDVLFKFSLNLPDEQIPLVIDKLHVALDGIMKPVTSGFGFIDLIIPGLHKANGISRLLKRWDLSPQNVVAIGDSGNDAEMLKMARYSFAMGNAAENIKQIARYATDDNNHEGALNVIQAVLDNTSPFNS”, the “total protein half-life in vivo” value [1] is reported as 5.01 ± 0.82 h, the “total protein half-life in vivo” value [2] is reported as 4.02 ± 0.23 h and the “total protein half-life in vivo” value [3] is reported as 4.38 ± 0.48 h. For the same sequence, the “total protein half-life in vivo” value [4] was 4.38 ± 0.34 h, the “total protein half-life in vivo” value [5] was 3.98 ± 0.12 h and the “total protein half-life in vivo” value [12] was 3.71 ± 0.2 h. The “total protein half-life in vivo” value [7] was 12.38 ± 0.075 h, the “total protein half-life in vivo” value [8] was 4.31 ± 0.45 h and the “total protein half-life in vivo” value [9] was 6.96 ± 0.49 h. The “total protein half-life in vivo” value [10] was 6.13 ± 0.23 h.

For “MLGLKQVHHIAIIATDYAVSKAFYCDILGFTLQSEVYREARDSWKGDLALNGQYVIELFSFPFPPERPSRPEACGLRHLAFSVDDIDAAVAHLESHNVKCETIRVDPYTQKRFTFFNDPDGLPLELYEQ”, the “total protein half-life in vivo” value [1] was 3.94 ± 0.96 h, the “total protein half-life in vivo” value [2] was 4.26 ± 0.34 h and the “total protein half-life in vivo” value [4] was 4.65 ± 0.89 h. For the same sequence, the “total protein half-life in vivo” value [5] was 3.22 h, the “total protein half-life in vivo” value [12] was 2.51 h and the “total protein half-life in vivo” value [6] was 5.13 h. For the same sequence, the “total protein half-life in vivo” value [7] was 11.4 h, the “total protein half-life in vivo” value [8] was 3.54 h and the “total protein half-life in vivo” value [9] was 4.57 ± 0.75 h. The “total protein half-life in vivo” value [10] was 6.05 ± 1.1 h and the “total protein half-life in vivo” value [11] was 11.7 ± 0.74 h.

For “MCEGYVEKPLYLLIAEWMMAENRWVIAREISIHFDIEHSKAVNTLTYILSEVTEISCEVKMIPNKLEGRGCQCQRLVKVVDIDEQIYARLRNNSREKLVGVRKTPRIPAVPLTELNREQKWQMMLSKSMRR [P0AE58]”, the “total protein half-life in vivo” value [1] was 3.96 ± 0.18 h.

With “MSANAETQTPQQPVKKSGKRKRLLLLLTLLFIIIAVAIGIYWFLVLRHFEETDDAYVAGNQIQIMSQVSGSVTKVWADNTDFVKEGDVLVTLDPTDARQAFEKAKTALASSVRQTHQLMINSKQLQANIEVQKIALAKAQSDYNRRVPLGNANLIGREELQHARDAVTSAQAQLDVAIQQYNANQAMILGTKLEDQPAVQQAATEVRNAWLALERTRIISPMTGYVSRRAVQPGAQISPTTPLMAVVPATNMWVDANFKETQIANMRIGQPVTITTDIYGDDVKYTGKVVGLDMGTGSAFSLLPAQNATGNWIKVVQRLPVRIELDQKQLEQYPLRIGLSTLVSVNTTNRDGQVLANKVRSTPVAVSTAREISLAPVNKLIDDIVKANAG” the “total protein half-life in vivo” value [1] was 6.17 ± 0.42 h, the “total protein half-life in vivo” value [2] was 6.38 ± 0.53 h and the “total protein half-life in vivo” value [3] was 6.57 ± 0.12 h. For the same sequence, the “total protein half-life in vivo” value [4] was 6.37 ± 0.58 h, the “total protein half-life in vivo” value [5] was 6.1 ± 0.26 h and the “total protein half-life in vivo” value [12] was 2.99 ± 0.1 h. For the same sequence, the “total protein half-life in vivo” value [6] was 6.37 ± 0.2 h, the “total protein half-life in vivo” value [7] was 13.5 ± 1.8 h and the “total protein half-life in vivo” value [8] was 6.17 ± 0.1 h. For the same sequence, the “total protein half-life in vivo” value [9] was 12 ± 0.35 h, the “total protein half-life in vivo” value [10] was 6.47 ± 0.29 h and the “total protein half-life in vivo” value [11] was 13.6 ± 2.7 h.

In the case of “MTQFTQNTAMPSSLWQYWRGLSGWNFYFLVKFGLLWAGYLNFHPLLNLVFAAFLLMPLPRYSLHRLRHWIALPIGFALFWHDTWLPGPESIMSQGSQVAGFSTDYLIDLVTRFINWQMIGAIFVLLVAWLFLSQWIRITVFVVAILLWLNVLTLAGPSFSLWPAGQPTTTVTTTGGNAAATVAATGGAPVVGDMPAQTAPPTTANLNAWLNNFYNAEAKRKSTFPSSLPADAQPFELLVINICSLSWSDIEAAGLMSHPLWSHFDIEFKNFNSATSYSGPAAIRLLRASCGQTSHTNLYQPANNDCYLFDNLSKLGFTQHLMMGHNGQFGGFLKEVRENGGMQSELMDQTNLPVILLGFDGSPVYDDTAVLNRWLDVTEKDKNSRSATFYNTLPLHDGNHYPGVSKTADYKARAQKFFDELDAFFTELEKSGRKVMVVVVPEHGGALKGDRMQVSGLRDIPSPSITDVPVGVKFFGMKAPHQGAPIVIEQPSSFLAISDLVVRVLDGKIFTEDNVDWKKLTSGLPQTAPVSENSNAVVIQYQDKPYVRLNGGDWVPYPQ”, the “total protein half-life in vivo” value [1] is reported as 3.61 ± 0.11 h, the “total protein half-life in vivo” value [2] is reported as 4.03 ± 0.34 h and the “total protein half-life in vivo” value [3] is reported as 2.98 ± 1.2 h. For the same sequence, the “total protein half-life in vivo” value [4] was 3.68 ± 0.32 h, the “total protein half-life in vivo” value [5] was 3.66 ± 0.32 h and the “total protein half-life in vivo” value [12] was 2.602 ± 0.019 h. For the same sequence, the “total protein half-life in vivo” value [6] was 4.28 ± 0.59 h, the “total protein half-life in vivo” value [7] was 8.3 ± 0.53 h and the “total protein half-life in vivo” value [8] was 4.05 ± 0.25 h. For the same sequence, the “total protein half-life in vivo” value [9] was 6.43 ± 1.3 h, the “total protein half-life in vivo” value [10] was 3.91 ± 0.42 h and the “total protein half-life in vivo” value [11] was 6.54 ± 0.083 h.
